Experimental data reported in publication PMC12036459.
Each block holds one substance with its values, some of them ahead of it.

Experiments:
[1] = biological target: tau (human 2N4R) (UniProt P10636); assay: Hill coefficient of microtubule binding curve; conditions: reference: E. coli tau (non-phosphorylated)
[2] = biological target: tau (human 2N4R) dGAE, 297-391 (UniProt P10636); assay: filament co-assembly, ultracentrifugation, SDS-PAGE
[3] = biological target: tubulin (taxol-stabilized microtubules); assay: single-molecule TIRF on bare microtubules; conditions: reference: E. coli tau (non-phosphorylated)
[4] = biological target: tau (human 2N4R) (UniProt P10636); assay: single-molecule TIRF dwell time inside envelopes; conditions: reference: E. coli SNAP-tau (non-phosphorylated); sites T181,S198,S202,S210,T231,S235,S237,S352,S396,S404,S422
[5] = sites T181,S202,S210,T231,S235,S237,S241,S258,S262,T319,T373,T377,T403,S404
[6] = sites T181,S198,S202,S210,T231,S235,S237,S352,S396,S404,S422

Chain of tau (human 2N4R) (P10636 whole entry, looked up, change not shown): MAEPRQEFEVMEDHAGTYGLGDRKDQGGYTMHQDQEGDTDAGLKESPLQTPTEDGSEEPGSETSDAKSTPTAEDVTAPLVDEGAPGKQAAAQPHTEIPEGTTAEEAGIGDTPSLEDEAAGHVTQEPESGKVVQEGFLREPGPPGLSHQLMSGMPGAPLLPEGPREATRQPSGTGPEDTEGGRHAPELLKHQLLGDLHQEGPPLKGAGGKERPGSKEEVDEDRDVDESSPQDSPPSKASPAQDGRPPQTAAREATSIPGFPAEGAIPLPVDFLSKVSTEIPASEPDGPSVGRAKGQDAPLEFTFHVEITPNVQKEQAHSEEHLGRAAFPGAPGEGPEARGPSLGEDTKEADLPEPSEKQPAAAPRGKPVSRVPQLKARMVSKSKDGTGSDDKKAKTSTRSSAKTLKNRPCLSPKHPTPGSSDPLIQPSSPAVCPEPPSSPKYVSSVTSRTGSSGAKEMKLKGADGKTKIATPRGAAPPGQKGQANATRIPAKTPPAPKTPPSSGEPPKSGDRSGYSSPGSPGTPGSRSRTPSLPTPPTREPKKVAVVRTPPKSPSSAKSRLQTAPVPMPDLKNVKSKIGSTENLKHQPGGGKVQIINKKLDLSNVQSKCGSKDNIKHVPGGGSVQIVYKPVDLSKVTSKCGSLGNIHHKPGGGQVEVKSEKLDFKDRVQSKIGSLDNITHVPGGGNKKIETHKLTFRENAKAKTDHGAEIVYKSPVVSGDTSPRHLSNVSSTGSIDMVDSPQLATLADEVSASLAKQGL

other: Hill coefficient [1, 5]: same; reference 1.24
other: t1/2 of co-pelleting ([2]; reference: E. coli tau (non-phosphorylated), sites T181,S202,S210,T231,S235,S237,S241,S258,S262,T319,T373,T377,T403,S404): same; reference ~ 14
other: dwell time [3, 5]: weaker; reference ~ 4.3
Substance: tau (human 2N4R) (from UniProt P10636-8) HEK tau

other: dwell time [4]: weaker; reference ~ 6.06
Substance: tau (human 2N4R) (from UniProt P10636-8) Sf9 SNAP-tau

other: Hill coefficient [1, 6]: stronger; reference 1.24
other: t1/2 of co-pelleting ([2]; reference: E. coli tau (non-phosphorylated), sites T181,S198,S202,S210,T231,S235,S237,S352,S396,S404,S422): stronger; reference ~ 14
other: t1/2 of co-pelleting ([2]; reference: HEK tau, sites S210,S422): stronger; reference ~ 12
other: dwell time [3, 6]: weaker; reference ~ 4.3
Substance: tau (human 2N4R) (from UniProt P10636-8) Sf9 tau
